According to IntAct's records for PubMed 25601757:

These substances were tested against wt1_human WT1 (UniProt P19544).
Chain of wt1_human WT1 (P19544 whole entry): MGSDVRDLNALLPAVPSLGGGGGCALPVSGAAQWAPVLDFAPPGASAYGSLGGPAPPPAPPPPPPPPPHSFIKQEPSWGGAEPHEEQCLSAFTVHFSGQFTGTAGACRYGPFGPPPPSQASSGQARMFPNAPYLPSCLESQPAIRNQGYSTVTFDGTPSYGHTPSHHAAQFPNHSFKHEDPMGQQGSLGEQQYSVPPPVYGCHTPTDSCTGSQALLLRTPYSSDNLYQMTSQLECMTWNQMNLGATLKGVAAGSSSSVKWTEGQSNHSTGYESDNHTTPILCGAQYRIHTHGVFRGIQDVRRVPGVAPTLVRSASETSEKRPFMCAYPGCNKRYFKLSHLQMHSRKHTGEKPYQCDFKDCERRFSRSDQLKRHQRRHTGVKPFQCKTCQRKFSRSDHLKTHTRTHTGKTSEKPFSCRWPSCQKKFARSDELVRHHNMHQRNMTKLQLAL

Substance | effect of a mutation on the interaction
Methylcytosine dioxygenase TET2 (Homo sapiens), Q6N021 A1505T | disrupting interaction strength
Methylcytosine dioxygenase TET2 (Homo sapiens), Q6N021 D1242V | disrupting interaction strength
Methylcytosine dioxygenase TET2 (Homo sapiens), Q6N021 D1314G | with no effect
Methylcytosine dioxygenase TET2 (Homo sapiens), Q6N021 F1368L | decreasing interaction strength
Methylcytosine dioxygenase TET2 (Homo sapiens), Q6N021 G1256D | disrupting interaction strength
Methylcytosine dioxygenase TET2 (Homo sapiens), Q6N021 G1861R | disrupting interaction strength
Methylcytosine dioxygenase TET2 (Homo sapiens), Q6N021 L1340R | decreasing interaction strength
Methylcytosine dioxygenase TET2 (Homo sapiens), Q6N021 P1617H | disrupting interaction strength
Methylcytosine dioxygenase TET2 (Homo sapiens), Q6N021 R1302G | disrupting interaction strength
Methylcytosine dioxygenase TET2 (Homo sapiens), Q6N021 T1884A | disrupting interaction strength
